# Measurements as given in the Human Domainome abundance scans (Beltran et al. 2025).
# ± gives the uncertainty stated by the source.
# B1: Ankyrin repeat and SAM domain-containing protein 6, residues 774 to 836; numbered along this chain, Q68DC2 (parent)
# chain: DEDELTGILKKLSLEKYQPIFEEQEVDMEAFLTLTDGDLKELGIKTDGSRQQILAAISELNAG
# Variants of: B1
# Assay: abundance fitness (aPCA) (normalised: wild type 0, dead -1); higher = more abundant; growth selection in yeast, the domain comes from the species named
# Settings: Homo sapiens
row,Variant,abundance fitness
1,DEDELTGILKMLSLEKYQPIFEEQEVDMEAFLTLTDGDLKELGIKTDGSRQQILAAISELNAG [K11M],-0.195 ± 0.11
2,DEDELTGILKGLSLEKYQPIFEEQEVDMEAFLTLTDGDLKELGIKTDGSRQQILAAISELNAG [K11G],-0.224 ± 0.064
3,DEDELTGILKRLSLEKYQPIFEEQEVDMEAFLTLTDGDLKELGIKTDGSRQQILAAISELNAG [K11R],-0.071 ± 0.053
4,DEDELTGILKSLSLEKYQPIFEEQEVDMEAFLTLTDGDLKELGIKTDGSRQQILAAISELNAG [K11S],-0.305 ± 0.058
5,DEDELTGILKQLSLEKYQPIFEEQEVDMEAFLTLTDGDLKELGIKTDGSRQQILAAISELNAG [K11Q],-0.099 ± 0.13
6,DEDELTGILKNLSLEKYQPIFEEQEVDMEAFLTLTDGDLKELGIKTDGSRQQILAAISELNAG [K11N],-0.254 ± 0.1
7,DEDELTGILKPLSLEKYQPIFEEQEVDMEAFLTLTDGDLKELGIKTDGSRQQILAAISELNAG [K11P],-0.689 ± 0.061
8,DEDELTGILKDLSLEKYQPIFEEQEVDMEAFLTLTDGDLKELGIKTDGSRQQILAAISELNAG [K11D],-0.166 ± 0.079
9,DEDELTGILKYLSLEKYQPIFEEQEVDMEAFLTLTDGDLKELGIKTDGSRQQILAAISELNAG [K11Y],-0.553 ± 0.087
10,DEDELTGILKTLSLEKYQPIFEEQEVDMEAFLTLTDGDLKELGIKTDGSRQQILAAISELNAG [K11T],-0.428 ± 0.078
11,DEDELTGILKLLSLEKYQPIFEEQEVDMEAFLTLTDGDLKELGIKTDGSRQQILAAISELNAG [K11L],-0.363 ± 0.044
12,DEDELTGILKELSLEKYQPIFEEQEVDMEAFLTLTDGDLKELGIKTDGSRQQILAAISELNAG [K11E],-0.391 ± 0.12
13,DEDELTGILKHLSLEKYQPIFEEQEVDMEAFLTLTDGDLKELGIKTDGSRQQILAAISELNAG [K11H],-0.621 ± 0.2
14,DEDELTGILKALSLEKYQPIFEEQEVDMEAFLTLTDGDLKELGIKTDGSRQQILAAISELNAG [K11A],-0.15 ± 0.06
15,DEDELTGIWKKLSLEKYQPIFEEQEVDMEAFLTLTDGDLKELGIKTDGSRQQILAAISELNAG [L9W],-0.963 ± 0.11
16,DEDELTGIFKKLSLEKYQPIFEEQEVDMEAFLTLTDGDLKELGIKTDGSRQQILAAISELNAG [L9F],-0.077 ± 0.13
17,DEDELTGISKKLSLEKYQPIFEEQEVDMEAFLTLTDGDLKELGIKTDGSRQQILAAISELNAG [L9S],-0.729 ± 0.081
18,DEDELTGIAKKLSLEKYQPIFEEQEVDMEAFLTLTDGDLKELGIKTDGSRQQILAAISELNAG [L9A],-0.913 ± 0.091
19,DEDELTGIQKKLSLEKYQPIFEEQEVDMEAFLTLTDGDLKELGIKTDGSRQQILAAISELNAG [L9Q],-0.876 ± 0.16
20,DEDELTGIVKKLSLEKYQPIFEEQEVDMEAFLTLTDGDLKELGIKTDGSRQQILAAISELNAG [L9V],-0.712 ± 0.072
21,DEDELTGIIKKLSLEKYQPIFEEQEVDMEAFLTLTDGDLKELGIKTDGSRQQILAAISELNAG [L9I],-0.741 ± 0.15

row,Variant,abundance fitness
1,DEDELTGIGKKLSLEKYQPIFEEQEVDMEAFLTLTDGDLKELGIKTDGSRQQILAAISELNAG [L9G],-0.917 ± 0.081
2,DEDELTGIKKKLSLEKYQPIFEEQEVDMEAFLTLTDGDLKELGIKTDGSRQQILAAISELNAG [L9K],-1.06 ± 0.15
3,DEDELTGITKKLSLEKYQPIFEEQEVDMEAFLTLTDGDLKELGIKTDGSRQQILAAISELNAG [L9T],-1.29 ± 0.19
4,DEDELTGIMKKLSLEKYQPIFEEQEVDMEAFLTLTDGDLKELGIKTDGSRQQILAAISELNAG [L9M],-0.193 ± 0.058
5,DEDELTGIEKKLSLEKYQPIFEEQEVDMEAFLTLTDGDLKELGIKTDGSRQQILAAISELNAG [L9E],-1.02 ± 0.097
6,DEDELTGIYKKLSLEKYQPIFEEQEVDMEAFLTLTDGDLKELGIKTDGSRQQILAAISELNAG [L9Y],-0.935 ± 0.15
7,DEDELTGICKKLSLEKYQPIFEEQEVDMEAFLTLTDGDLKELGIKTDGSRQQILAAISELNAG [L9C],-0.801 ± 0.064
8,DEDELTGIRKKLSLEKYQPIFEEQEVDMEAFLTLTDGDLKELGIKTDGSRQQILAAISELNAG [L9R],-0.999 ± 0.068
9,DEDELTGIHKKLSLEKYQPIFEEQEVDMEAFLTLTDGDLKELGIKTDGSRQQILAAISELNAG [L9H],-1.07 ± 0.18
10,DEDELTGILLKLSLEKYQPIFEEQEVDMEAFLTLTDGDLKELGIKTDGSRQQILAAISELNAG [K10L],-0.656 ± 0.059
11,DEDELTGILTKLSLEKYQPIFEEQEVDMEAFLTLTDGDLKELGIKTDGSRQQILAAISELNAG [K10T],-0.049 ± 0.11
12,DEDELTGILQKLSLEKYQPIFEEQEVDMEAFLTLTDGDLKELGIKTDGSRQQILAAISELNAG [K10Q],-0.233 ± 0.088
13,DEDELTGILEKLSLEKYQPIFEEQEVDMEAFLTLTDGDLKELGIKTDGSRQQILAAISELNAG [K10E],-0.084 ± 0.082
14,DEDELTGILCKLSLEKYQPIFEEQEVDMEAFLTLTDGDLKELGIKTDGSRQQILAAISELNAG [K10C],-1.01 ± 0.095
15,DEDELTGILDKLSLEKYQPIFEEQEVDMEAFLTLTDGDLKELGIKTDGSRQQILAAISELNAG [K10D],-0.663 ± 0.087
16,DEDELTGILWKLSLEKYQPIFEEQEVDMEAFLTLTDGDLKELGIKTDGSRQQILAAISELNAG [K10W],-0.831 ± 0.066
17,DEDELTGILNKLSLEKYQPIFEEQEVDMEAFLTLTDGDLKELGIKTDGSRQQILAAISELNAG [K10N],-0.481 ± 0.067
18,DEDELTGILHKLSLEKYQPIFEEQEVDMEAFLTLTDGDLKELGIKTDGSRQQILAAISELNAG [K10H],-0.406 ± 0.066
19,DEDELTGILPKLSLEKYQPIFEEQEVDMEAFLTLTDGDLKELGIKTDGSRQQILAAISELNAG [K10P],-0.525 ± 0.089
20,DEDELTGILVKLSLEKYQPIFEEQEVDMEAFLTLTDGDLKELGIKTDGSRQQILAAISELNAG [K10V],-0.595 ± 0.049
21,DEDELTGILAKLSLEKYQPIFEEQEVDMEAFLTLTDGDLKELGIKTDGSRQQILAAISELNAG [K10A],-0.069 ± 0.052
